# Data from paper PMC2746449.
# Where a chain is given by its changes, count along the chain named.
# T1: Flag-Aub mutant (M) (Drosophila melanogaster, UniProt O76922 1-866, R11K;R13K;R15K;R17K)
# T1 sequence: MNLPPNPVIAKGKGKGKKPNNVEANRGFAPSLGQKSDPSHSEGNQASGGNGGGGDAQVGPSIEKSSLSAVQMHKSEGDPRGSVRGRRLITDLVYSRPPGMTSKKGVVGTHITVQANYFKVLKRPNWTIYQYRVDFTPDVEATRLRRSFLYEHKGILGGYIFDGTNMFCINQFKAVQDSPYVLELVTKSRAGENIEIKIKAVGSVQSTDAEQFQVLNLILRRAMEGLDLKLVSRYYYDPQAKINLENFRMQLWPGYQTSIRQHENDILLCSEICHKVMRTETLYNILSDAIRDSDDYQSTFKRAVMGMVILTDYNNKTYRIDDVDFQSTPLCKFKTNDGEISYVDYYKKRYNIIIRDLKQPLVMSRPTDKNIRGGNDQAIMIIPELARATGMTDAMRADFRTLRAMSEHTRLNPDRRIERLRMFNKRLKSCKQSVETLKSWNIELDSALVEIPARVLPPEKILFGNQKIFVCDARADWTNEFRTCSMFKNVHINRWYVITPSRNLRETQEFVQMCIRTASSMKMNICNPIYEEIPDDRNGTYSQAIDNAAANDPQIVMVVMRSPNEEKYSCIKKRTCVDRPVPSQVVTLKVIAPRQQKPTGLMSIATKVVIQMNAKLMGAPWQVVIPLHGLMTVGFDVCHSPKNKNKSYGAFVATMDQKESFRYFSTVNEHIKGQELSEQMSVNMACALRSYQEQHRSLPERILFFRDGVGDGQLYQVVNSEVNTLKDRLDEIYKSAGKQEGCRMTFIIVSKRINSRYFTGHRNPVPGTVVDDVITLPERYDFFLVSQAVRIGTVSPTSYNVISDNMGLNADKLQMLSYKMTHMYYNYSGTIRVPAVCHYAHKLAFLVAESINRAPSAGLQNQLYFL
# T2: Flag-Aub WT (Drosophila melanogaster, UniProt O76922 1-866)
# T2 sequence: T1 sequence with K11R, K13R, K15R, K17R
# B1: synthetic piRNA with s4U at position 1 (ssRNA)
# RNA: UGACAUGAACACAGGUGCUCAGAUAGCUUU
# modifications: 4-thio-uridine (s4U) at position 1
# Key:
# Flag-Aub mutant (M) = molecular target: T1, Flag-Aub mutant (M); assay: UV crosslinking
# Flag-Aub WT = molecular target: T2, Flag-Aub WT; assay: UV crosslinking
binder,measurement,setting,value
B1,binding result,Flag-Aub mutant (M),binds
same,binding result,Flag-Aub WT,binds
